Patent publication US20030207330A1 (DYAX, published 2003)
fluorescein = fluorescein label, attached with NHS-fluorescein

Molecular target: T1, fibrinogen (species not stated); biotinylated fibrinogen on streptavidin plates in the phage ELISA, free … (Homo sapiens (Human), UniProt P02671 20-644); P02675 31-491; P02679 27-437, Biotinylated at unstated positions in the phage ELISA and unlabelled in the anisotropy assay. The native molecule is a disulfide-linked dimer of the three chains, (A-alpha B-beta gamma)2, and is …)
T1 construct: also called Fgn; fibrinogen target
T1 sequence (alpha): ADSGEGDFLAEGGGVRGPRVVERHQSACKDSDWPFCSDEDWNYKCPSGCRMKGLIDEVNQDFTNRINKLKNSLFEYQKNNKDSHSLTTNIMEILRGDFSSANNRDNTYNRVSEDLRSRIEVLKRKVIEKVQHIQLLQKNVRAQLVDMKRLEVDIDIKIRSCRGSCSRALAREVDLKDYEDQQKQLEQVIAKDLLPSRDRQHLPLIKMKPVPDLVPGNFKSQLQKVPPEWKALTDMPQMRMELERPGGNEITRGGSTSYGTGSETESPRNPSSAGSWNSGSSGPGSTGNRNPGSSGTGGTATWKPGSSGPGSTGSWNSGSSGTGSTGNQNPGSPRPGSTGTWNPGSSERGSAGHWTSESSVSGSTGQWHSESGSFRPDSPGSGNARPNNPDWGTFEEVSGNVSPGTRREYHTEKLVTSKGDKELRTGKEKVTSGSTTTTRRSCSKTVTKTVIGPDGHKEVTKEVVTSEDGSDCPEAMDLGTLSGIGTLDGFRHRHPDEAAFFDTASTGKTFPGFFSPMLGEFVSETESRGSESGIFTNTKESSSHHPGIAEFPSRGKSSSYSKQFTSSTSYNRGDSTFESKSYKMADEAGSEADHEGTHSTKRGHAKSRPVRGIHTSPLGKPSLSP
T1 sequence (beta): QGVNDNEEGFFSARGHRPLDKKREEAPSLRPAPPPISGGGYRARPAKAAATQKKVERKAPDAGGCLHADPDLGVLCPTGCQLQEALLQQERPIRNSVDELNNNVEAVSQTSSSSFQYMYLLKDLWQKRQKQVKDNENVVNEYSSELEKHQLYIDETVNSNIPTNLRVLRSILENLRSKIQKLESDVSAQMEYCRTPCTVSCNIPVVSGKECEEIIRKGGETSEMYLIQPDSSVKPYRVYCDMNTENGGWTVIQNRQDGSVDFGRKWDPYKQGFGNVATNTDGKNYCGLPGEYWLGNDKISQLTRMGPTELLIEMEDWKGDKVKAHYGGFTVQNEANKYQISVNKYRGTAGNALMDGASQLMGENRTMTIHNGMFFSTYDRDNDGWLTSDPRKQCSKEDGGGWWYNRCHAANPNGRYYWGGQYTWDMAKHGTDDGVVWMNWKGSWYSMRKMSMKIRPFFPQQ
T1 sequence (gamma): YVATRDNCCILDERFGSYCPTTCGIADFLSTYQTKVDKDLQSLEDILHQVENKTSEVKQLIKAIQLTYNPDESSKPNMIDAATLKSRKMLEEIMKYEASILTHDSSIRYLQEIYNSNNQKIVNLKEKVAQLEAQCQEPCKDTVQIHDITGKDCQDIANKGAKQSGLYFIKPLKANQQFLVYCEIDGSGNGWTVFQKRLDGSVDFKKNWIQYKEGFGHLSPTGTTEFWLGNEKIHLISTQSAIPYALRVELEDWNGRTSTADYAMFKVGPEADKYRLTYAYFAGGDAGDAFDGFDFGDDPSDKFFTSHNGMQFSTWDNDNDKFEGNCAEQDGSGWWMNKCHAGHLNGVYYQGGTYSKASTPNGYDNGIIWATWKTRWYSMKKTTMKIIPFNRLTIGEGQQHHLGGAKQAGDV
Assay: fluorescence anisotropy, 20 nM fluorescein-labeled peptide, fibrinogen varied, 30° C., 1:1 fit
Protocol: An apparent dissociation constant was determined for a selected polypeptide. For this determination, the polypeptide was labeled on the C-terminal end with NHS-fluorescein. Fluorescence anisotropy measurements were performed in 384-well microplates in a volume of 10 μl in binding buffer using a Tecan Polarion fluorescence polarization plate reader. The concentration of fluorescein labeled peptide was held constant (20 nM), and the concentration of fibrinogen was varied. The polypeptide was tested in the same binding buffer as used in the selection. The binding mixture was equilibrated for 10 minutes in the microplate at 30° C. prior to performing the measurement. The observed change in anisotropy was fit to the equation below via nonlinear regression to obtain the apparent KD. This equation assumes that the polypeptide and fibrinogen form a reversible complex with 1:1 stoichiometry.

B1: fluorescein-labeled synthetic polypeptide based on the TN10/IX polypeptide of SEQ ID NO: 43 (peptide)
peptide: Ac-LYLCNSYPMHPYCNPSGGGK(fluorescein)-NH2
modifications: cysteine pairing not given here; also: retained phage-derived N- and C-terminal dipeptides, which ones not given here
notes: Commercial FMOC solid phase synthesis; also called selected polypeptide; not shown: retained phage-derived N-terminal dipeptide (Gly-Ser-, Ala-Gly- or Gly-Asp-); retained phage-derived C-terminal dipeptide (-Ala-Pro, -Gly-Thr or -Asp-Pro)
B1 gave a Kd of 2000 nM.
